From the DeepSol protein solubility set

Experiment: soluble on expression in E. coli; label from the status in PepcDB or PDB records

Sequence | soluble on expression in E. coli
GPGSMQPYGMSTSRTNRRPLVASRGGPNAPQRNYAMVTGPVDPSTSLIRYELPFSPADPKRSVKLRRRFGEPIEESVVDPNVRVVLDSFIPPRAWYDDDGVLWVQHASPKPASRTDTVETHEKLRRRLRETGAKRTGICPIRSLLLAECFLEVIRQVTVECWERGLVLLKIHAERVAAQTAHRELFESRVGYAFRLALKGEKDTSRVQQDLGKLKKRMEELAEEEKTLRQQCDEASARGEEEMLIVGKQHSDEVAAIKKEGILKRNQLEHMISMPSTP | soluble
MEINADFTKPVVIDTDQLEWRPSPMKGVERRMLDRIGGEVARATSIVRYAPGSRFSAHTHDGGEEFIVLDGVFQDEHGDYPAGTYVRNPPTTSHVPGSAEGCTIFVKLWQFDPADRTQFSKNMEAELGAPVEGISTSLLHEDERETVTHRKLEPGANLTSEAAGGIEVLVLDGDVTVNDEVLGRNAWLRLPEGEALSATAGARGAKIWMKTGHLRFVRTPEV | soluble
GMGKEIEIERKTLVSKETFKRLISQLHIGEGDFKLQRNHYFETDDFQLKKQSSALRIREKEAIFTFTLKQPHPAGLLETNQTLSKQEAKLALESAHFPSGEVMDALRDLSIPISQLKHIGTLSTSRAEISYEQGILCLDHSSYLGIEDYEIEFEGTSEEHATVTFQEILKTFSISQVPTENKIQRFFSKKEKN | soluble
MSLEKSYWEQAHLQLPLKYTWKISRNASTEKINVIVFLCIDGRTYPGEAAPNVRYGESVELIDLQFKHFQTVWKDSLLQDEHAYNDVLDGLKLCQSLRFALESAYVHARCDKDPAFFERYTGIKMHTSPLATSYTLPIMDPGQIQEFIQTHDLTRFDTLKIKTGKEESKELIKTASRYFDKMIRVDANEAWTDPDLLIKELEELKRIPLEFIEQPFESAQKDAYKYFKKYSKIPVIADESITFAPDLKEIKELFHGVNMKLMKAGGYREGANILLKSKELGLKTMVGCMVETTLGIRSGMWISGHSDYIDLDGSFVIDNEPFKLVSENLGRLVIKQVNFFIEKWQKEGHHHHHH | soluble
QITLKESGPGIVQPSQPFRLTCTFSGFSLSTSGIGVTWIRQPSGKGLEWLATIWWDDDNRYNPSLKSRLTVSKDTSNNQAFLNMMTVETADTAIYYCAQSAITSVTDSAMDHWGQGTSVTVSSAKTTPPSVYPLAPGSAAQTNSMVTLGCLVKGYFPEPVTVTWNSGSLSSGVHTFPAVLQSDLYTLSSSVTVPSSTWPSETVTCNVAHPASSTKVDKKIVPADC | soluble
MGSSHHHHHHSSGLVPRGSHMLEDPMEQPINVLNDFHPLNEAGKILIKHPSLAERKDEDGIHWIKSQWDGKWYPEKFSDYLRLHKIVKIPNNSDKPELFQTYKDKNNKRSRYMGLPNLKRANIKTQWTREMVEEWKKCRDDIVYFAETYCAITHIDYGVIKVQLRDYQRDMLKIMSSKRMTVCNLSRQLGKTTVVAIFLAHFVCFNKDKAVGILAHKGSMSAEVLDRTKQAIELLPDFLQPGIVEWNKGSIELDNGSSIGAYASSPDAVRGNSFAMIYIEDCAFIPNFHDSWLAIQPVISSGRRSKIIITTTPNGLNHFYDIWTAAVEGKSGFEPYTAIWNSVKERLYNDEDIFDDGWQWSIQTINGSSLAQFRQEHTAAFEGTSGTLISGMKLAVMDFIEVTPDDHGFHQFKKPEPDRKYIATLDCSEGRGQDYHALHIIDVTDDVWEQVGVLHSNTISHLILPDIVMRYLVEYNECPVYIELNSTGVSVAKSLYMDLEYEGVICDSYTDLGMKQTKRTKAVGCSTLKDLIEKDKLIIHHRATIQEFRTFSEKGVSWAAEEGYHDDLVMSLVIFGWLSTQSKFIDYADKDD | soluble
MDRATVVGGAARRLAMIAVIIPAHNEAECMAACLASVFLAASHPELREPVEVIVAVDRCTDATAALAQALGARVIDVPVPGGVGIARAAAASKAIALGADWLAVTDADSRVPADWLVEQRRADADVFCGVVQVEDWLDYSDEVRCRFEQTQATGQGHGRIHGANLGVSAALYQQCGGFPAVTCSEDVALVHALQAINASIAWSPRSVVWTSARRQARAIGGFSDFLKKLEASTCVPALEHHHHHH | not soluble
MAHHHHHHMKCQKIRRDIFIYMLYNFSFCAGKKEDKDKGKDKDKEKKKLESVPISHMGKKKKKNKGTSGHSKLPNVTPNTKCRLKLLKLERIKDYLLLEEEYITNQEQIKSSDDKNYVKLKIDDLRGSPVSVGTLEELIDENHGIIATSVGPEYYVNILSFVDKDLLEPGCSVLLNNKTNSVVGILLDEVDPLVSVMKVEKAPLESYADIGGLESQIQEIKEAVELPLTHPELYEDIGIKPPKGVILYGPPGTGKTLLAKAVANETSATFLRVVGSELIQKYLGDGPKLVREMFKVAEEHAPSIVFIDEIDAVGTKRYEATSGGEREIQRTMLELLNQLDGFDSRGDVKVIMATNRIDSLDPALIRPGRIDRKIQLPNPDTKTKRRIFQIHTSKMTMSPDVDLEEFVMSKDELSGADIKAICTEAGLLALRERRMKITQADLRKARDKALFQKKGNIPEGLYL | not soluble
MGSDKIHHHHHHMENQNHAFNYAYLLKQVKARVLLAQKKAIYTANEEMLSMYWDIGKLLSESQKQIGWGNNALEKLANDLKNDYPEMKGFSVRNCQFMIQFYNEYNQQLTNTKRAVSYLNNNEIVLPISKLGWSHNITLMQRTKDIKARYWYMIQCLKNGWSRDFLIEAIKQDYYHSHGALASNFDTTLPEIQAKQVKETLKDPYIFDMLTFTEEYDERDIELGLIKHIEKFLVEMGAGFAFMGRQYHIEVSEKDFYIDILMYNAFMHRYLVVELKRGEFQPEYIGKLNFYCSAVDDILCREGDNPTIGLLLCQNKDQIMAEYALRDVHKPIGISDYELGQALPKDIKSGLPSIEELENKLSRDLQDIDNKE | not soluble
MVTPLTGTHEGVSCDGCAFTAFAGNRYKCLRCSDYDLCFSCFTTKNYGDQQTIADIPIHDESHPMQLILSSVDFDLVYQGDPTRHYDERKIVSFTCPYCNITGLTERQFGTHVLSQHPEAPGYSVICPLCIGNTEMEHIQSKETENLSVHWTEIHLHTMENLFRSTEPITTRPVQRRPMLARRGNRAGVSRTAAQGRPLQDEIGAEMAALLRNMGPDSVEDIRRFTEMMTVPLLPGIRSSQRLMTSTGDRPTVVVESAVTHQDPNVQQVIRPLATIPIYPPTSDESGDETPQPAADSADESEDDNDIQELDDMQPIVEDEALKKDEFWKTLKTRISEEDVDLILETMKSTAKVKEDIDDKMPVWTQRPLKRLANAAQVTTTSDSEGDPGWLPLSFETTPIRSTGCGGYWSDKRFLRPRKMQREQSVASSNAEIMEKAEIALALIRASCLHEPVFTDPTKPDIALKEALQHLRLGEKPAKMMEYQAAEELVNMPERDPITTGEMEVEIPDFTARGYGQIVDGNIPLGVVPEADEAITNSEDEEIVGGETSGDDEDEQEDDENDSQDSSVPEEINID | not soluble
VSPRPGPAGRGPAPCRCADLHSLCVDSHALRRDGMRFLHTADWQLGMTRHFLAGDAQPRYSAARRDAVAGLKALAADVGAEFVVVAGDVFEHNQLAPQIVGQSLEAMRVIGLPVYLLPGNHDPLDASSVYTSTLFRAERPDNVVVLDRAGVHEVRPGVQIVAAPWRSKAPTTDPVAEVLAGLPTDAAIRLLVAHGGVDALDPDHDKPSLIRLAALDDALTRQAIHYVALGDKHSLTQVGSSGRVWYSGAPEVTNFDDVEPDPGHVLVVDIDESDPRHPVTVDARRIGRWRFVTLHHQVDTSRDIADLDLNLDLMTDKDRTVVRLALTGSLTVTDRAALDTCLDKYARLFAWLGLWERHTDLAVIPVDAEFTDLGIGGFAAAAVDELVATARGGDDESAVDAQAALALLLRLADRGAA | not soluble
MAELPKTLEEAITQSREAVKSALADGVTRIQVDFLFPELKFMPVAEQFVPLFAEYESRVKVFFADAGAAALARRDWQNVPFKVEDIGTGRAASLQTKIQPEDEIFLFIAPTPVEVPQLEKMCEIIDTRPIVLLNPRLEDSGVVGIGYAARETRRRFISTIESCYYLRPVDDESALFRCYPGQWEVWLESNNEYEKIAELPKRPSGDEIDMILMKGQPAKPSEGTPAKKP | soluble
MDDSSEEANQFEPPPAIRKSTRAVNNLSPHQKEVRCQCGTNNTDNRLIKCVECEKWQHAICMSVMPLDIIMTYKCEMCEPRLLMVSRSQARAYQGVEPEPREVRKKGRNQSVNLEEFLEFLSEASENISRPLALTTLFEDYKEHINYPQSVRILRKQLESNLLETISMSPNYYADRKAQMLFAMGLRVKGEFLERLERNAVVEVDGYHRITFYKSKNLEFRGKHRVGRFPLVNRRKSAESTSQQHGNSGEEDDDDIFIDLVVPVTGNSRWNQFPVKQEIPDEQSFGSASTLPNAEIEPNLQYSLSDTMTTGSASTWNMAATPPSEMRGIMMESMNGLHALQSASYPPYQEMQEMLCVQHTMMKSMHEIIKTQSDFYREMFKTRAIAGAPPAPATTSLRAFLHFLKGYVDYLESEQLVDCSRLTQQHLETCRAADKLISMEKLLTGLAVATTIAEAHLSDVSAIINGASAMEFYKFIEIYASNQSNSAFSGLCTDLKQKIQALVNMDKKIPFKELSRAFRTAISLVSQ | not soluble
MLFCPLLLIFLIANSNGEPLPPDMKDLQNHLDTFQKAVDTGDKKALREMMPVNQRISEEKLDEFIKTRKSFKMTAKSAQATSSGITGKVDYAIGKATLLLDVVLEKSSSSPSAYKFVSISKQSIPSQRREIPDCFYTLLIMCPYDLIVALAQTAENVLKG | not soluble
MGSDKIHHHHHHMLTRMMQATAAIQQSVDGYFAVPTSLLVPDARGGFSIYLKQERGFVLYAKEDEAFTMRHRMQLRAHGVTQVFVPAPQHPSFISHRERHFGRVLSDDSLPLPERARLFYETSTEIVKEVFEKKLPRTLKRETFDRILALVSEGISFLTLENSLKTVASLVAHDYHTYSHSLHVFVYSQALLQSYGFDEDSLVQFGLGAMLHDIGKTFLDAAILTKPAALTPDEREEVNRHPVFGVGACARMPLSQDAINCILFHHEKLDGSGYPCGLRGDEIPLPVRAITIADIYDALTSNRAYAPARNAFQVLRIMSSEMRDQLDLDMFRRFVLMLSGANVL | not soluble
MRSMKVFISIGVVLSVVNCIFFDHGDSSDGSYSDSSGEGRGHHHKHGPRPPRPNRPPRPPPATPPPTTPAPSCPGGWSLIHRRRGPWCIQVFNGAAGLEGSNNACRAQGAVLSSVENAQERETIARLGLEKMLPTGWKYGTIRVGLRKNSQGAPWYNTDGSTDANNLEGVLWSPAEPRNGNWGGVQLNCATMWLWGGIFEGGRIHGQFFTNICLANNPNDRYRGYVCGKPA | not soluble
